Experimental data published in patent publication US20210221873A1 (Dana-Farber, published 2021).

Legend:
Test in all cases: FACS on transfected 293T cells
[1] = target: full-length H1 HA of H1-SC1918 (A/South Carolina/1/1918 (H1N1)) (influenza A virus A/South …, UniProt Q9WFX3 18-566)
[2] = target: full-length H1 HA of H1-PR34 (A/Puerto Rico/8/34 (H1N1)) (influenza A virus A/Puerto Rico/8/34 …, UniProt P03452 18-565)
[3] = target: full-length H2 HA of H2-JP57 (A/Japan/305/57 (H2N2)) (influenza A virus A/Japan/305/57 (H2N2), UniProt P03451 16-562)
[4] = target: full-length H8 HA of H8-ON68 (A/turkey/Ontario/6118/68) (influenza A virus …, UniProt P03456 16-565)
Sequence of full-length H8 HA of H8-ON68 (A/turkey/Ontario/6118/68) (P03456 16-565 limits assumed): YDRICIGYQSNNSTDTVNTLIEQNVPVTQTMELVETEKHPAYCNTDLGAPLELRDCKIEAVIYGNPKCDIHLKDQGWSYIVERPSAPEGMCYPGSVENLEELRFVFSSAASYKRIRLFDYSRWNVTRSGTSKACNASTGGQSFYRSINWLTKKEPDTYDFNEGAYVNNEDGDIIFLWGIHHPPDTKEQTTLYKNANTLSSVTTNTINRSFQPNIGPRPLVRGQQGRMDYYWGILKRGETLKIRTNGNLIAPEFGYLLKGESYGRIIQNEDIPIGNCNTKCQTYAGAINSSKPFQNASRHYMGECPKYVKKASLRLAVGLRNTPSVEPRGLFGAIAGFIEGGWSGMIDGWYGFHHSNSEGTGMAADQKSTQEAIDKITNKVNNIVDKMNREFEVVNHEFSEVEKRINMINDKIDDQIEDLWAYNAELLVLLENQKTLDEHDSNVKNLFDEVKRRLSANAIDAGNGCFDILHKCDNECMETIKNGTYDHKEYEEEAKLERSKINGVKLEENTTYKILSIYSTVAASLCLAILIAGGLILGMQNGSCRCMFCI

[5] = target: full-length H13 HA of H13-MD77 (A/Gull/MD/704/77 (H13N6)) (influenza A virus A/Gull/MD/704/77 …, UniProt P13103 19-566)
Sequence of full-length H13 HA of H13-MD77 (A/Gull/MD/704/77 (H13N6)) (P13103 19-566): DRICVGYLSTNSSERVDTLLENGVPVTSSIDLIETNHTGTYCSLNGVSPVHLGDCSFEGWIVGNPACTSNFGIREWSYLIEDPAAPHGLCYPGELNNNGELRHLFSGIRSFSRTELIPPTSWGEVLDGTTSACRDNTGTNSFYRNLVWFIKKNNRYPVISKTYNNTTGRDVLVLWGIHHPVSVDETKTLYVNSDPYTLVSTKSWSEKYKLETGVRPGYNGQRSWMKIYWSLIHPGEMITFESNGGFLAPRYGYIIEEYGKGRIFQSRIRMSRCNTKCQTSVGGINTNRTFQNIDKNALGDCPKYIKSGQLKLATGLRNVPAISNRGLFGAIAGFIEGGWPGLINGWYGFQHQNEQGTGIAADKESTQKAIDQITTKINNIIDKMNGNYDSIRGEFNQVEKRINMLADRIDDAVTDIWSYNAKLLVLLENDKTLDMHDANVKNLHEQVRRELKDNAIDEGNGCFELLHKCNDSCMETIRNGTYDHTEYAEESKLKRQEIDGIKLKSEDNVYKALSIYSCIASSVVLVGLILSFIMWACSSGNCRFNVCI

[6] = target: full-length H7 HA of H7-FP34 (A/FPV/Rostock/34 (H7N1)) (influenza A virus A/FPV/Rostock/34 …, UniProt P03459 19-563)
Sequence of full-length H7 HA of H7-FP34 (A/FPV/Rostock/34 (H7N1)) (P03459 19-563): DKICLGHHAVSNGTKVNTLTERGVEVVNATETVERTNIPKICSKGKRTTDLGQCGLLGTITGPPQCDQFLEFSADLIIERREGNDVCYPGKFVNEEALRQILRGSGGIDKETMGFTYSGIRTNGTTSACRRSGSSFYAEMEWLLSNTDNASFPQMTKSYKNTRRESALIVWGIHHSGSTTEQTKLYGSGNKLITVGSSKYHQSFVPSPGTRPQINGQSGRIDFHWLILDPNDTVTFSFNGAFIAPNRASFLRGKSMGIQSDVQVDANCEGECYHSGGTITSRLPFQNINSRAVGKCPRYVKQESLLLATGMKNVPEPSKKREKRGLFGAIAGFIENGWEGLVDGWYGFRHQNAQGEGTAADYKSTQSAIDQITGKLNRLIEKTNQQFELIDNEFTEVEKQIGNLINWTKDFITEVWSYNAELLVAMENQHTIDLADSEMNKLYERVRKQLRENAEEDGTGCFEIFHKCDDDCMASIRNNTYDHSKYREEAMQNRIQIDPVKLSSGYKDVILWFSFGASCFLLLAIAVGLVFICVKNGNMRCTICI

[7] = target: full-length H14 HA of H14-CU82 (A/mallard/Gurjev/263/82 (H14N5)) (influenza A virus …, UniProt P26136 18-568)
Sequence of full-length H14 HA of H14-CU82 (A/mallard/Gurjev/263/82 (H14N5)) (P26136 18-568 limits assumed): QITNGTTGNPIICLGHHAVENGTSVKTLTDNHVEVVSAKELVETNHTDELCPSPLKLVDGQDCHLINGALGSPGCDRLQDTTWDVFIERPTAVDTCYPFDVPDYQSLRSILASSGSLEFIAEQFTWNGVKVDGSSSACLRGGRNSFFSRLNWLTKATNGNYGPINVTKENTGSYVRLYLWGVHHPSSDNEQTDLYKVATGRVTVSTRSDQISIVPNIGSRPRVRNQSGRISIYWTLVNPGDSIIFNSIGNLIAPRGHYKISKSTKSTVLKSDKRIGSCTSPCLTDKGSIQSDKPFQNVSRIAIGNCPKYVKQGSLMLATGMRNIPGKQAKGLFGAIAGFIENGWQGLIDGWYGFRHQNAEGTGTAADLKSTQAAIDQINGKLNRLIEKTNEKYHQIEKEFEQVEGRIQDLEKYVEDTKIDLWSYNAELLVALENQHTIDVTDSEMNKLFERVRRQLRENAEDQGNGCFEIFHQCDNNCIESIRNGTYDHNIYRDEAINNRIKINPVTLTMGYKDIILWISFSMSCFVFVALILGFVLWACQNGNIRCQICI

Sequence of full-length H1 HA of H1-SC1918 (A/South Carolina/1/1918 (H1N1)) (Q9WFX3 18-566): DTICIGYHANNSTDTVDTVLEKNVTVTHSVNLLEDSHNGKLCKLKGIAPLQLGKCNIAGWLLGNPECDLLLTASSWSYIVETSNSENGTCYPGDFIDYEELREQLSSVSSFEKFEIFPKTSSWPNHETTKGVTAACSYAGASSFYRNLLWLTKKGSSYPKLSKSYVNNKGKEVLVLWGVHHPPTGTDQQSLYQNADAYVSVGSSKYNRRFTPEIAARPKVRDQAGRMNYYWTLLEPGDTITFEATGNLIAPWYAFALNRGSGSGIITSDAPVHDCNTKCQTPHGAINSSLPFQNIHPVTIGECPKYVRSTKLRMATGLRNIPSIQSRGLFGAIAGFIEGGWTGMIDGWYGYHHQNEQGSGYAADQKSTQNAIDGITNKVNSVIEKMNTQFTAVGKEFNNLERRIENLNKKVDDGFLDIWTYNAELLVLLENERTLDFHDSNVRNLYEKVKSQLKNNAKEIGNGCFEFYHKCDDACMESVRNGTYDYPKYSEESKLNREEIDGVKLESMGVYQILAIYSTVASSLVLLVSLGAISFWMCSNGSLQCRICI
Sequence of full-length H1 HA of H1-PR34 (A/Puerto Rico/8/34 (H1N1)) (P03452 18-565): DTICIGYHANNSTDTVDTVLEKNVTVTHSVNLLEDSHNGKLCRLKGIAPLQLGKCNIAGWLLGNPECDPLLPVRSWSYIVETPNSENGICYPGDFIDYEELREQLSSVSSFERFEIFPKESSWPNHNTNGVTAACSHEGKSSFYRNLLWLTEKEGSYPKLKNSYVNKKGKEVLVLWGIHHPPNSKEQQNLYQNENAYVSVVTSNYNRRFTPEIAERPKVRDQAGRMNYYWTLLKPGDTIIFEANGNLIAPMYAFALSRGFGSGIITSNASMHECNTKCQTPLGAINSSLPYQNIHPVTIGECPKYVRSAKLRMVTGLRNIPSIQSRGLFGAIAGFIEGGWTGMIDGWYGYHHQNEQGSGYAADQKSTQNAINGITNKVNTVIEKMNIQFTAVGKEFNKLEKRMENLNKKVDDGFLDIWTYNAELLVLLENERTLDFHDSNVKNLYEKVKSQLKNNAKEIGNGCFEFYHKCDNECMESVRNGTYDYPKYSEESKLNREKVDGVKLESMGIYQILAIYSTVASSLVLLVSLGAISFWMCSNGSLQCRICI

B1: A66-IgG1 (antibody, V domains shown)
VH: QVQLVQSGAEVKKPGSSVKVSCKASGGPFSMTAFTWLRQAPGQGLEWMGGISPIFRTPKYAQKFQGRVTITADESTNTANMELTSLKSEDTAVYYCARTLSSYQPNNDAFAIWGQGTMVTVSS
VL: EIVLTQSPATLSLSPGERATLSCRASQSVSSYLAWYQQKPGQAPRLLIYDASNRATGIPARFSGSGSGTDFTLTISRLEPEDFAVYFCQQYGSSPQFGQGTRLEIK
[1]
  binding result: binds
[2]
  binding result: binds
[3]
  binding result: binds
[4]
  binding result: binds
[5]
  binding result: binds
[6]
  binding result: no binding (tested: 10 µg/mL)
[7]
  binding result: no binding

B2: F10-IgG1 (antibody, V domains shown)
VH: QVQLVQSGAEVKKPGSSVKVSCTSSEVTFSSFAISWVRQAPGQGLEWLGGISPMFGTPNYAQKFQGRVTITADQSTRTAYMDLRSLRSEDTAVYYCARSPSYICSGGTCVFDHWGQGTLVTVSS
VL: QPGLTQPPSVSKGLRQTATLTCTGNSNNVGNQGAAWLQQHQGHPPKLLSYRNNDRPSGISERFSASRSGNTASLTITGLQPEDEADYYCSTWDSSLSAVVFGGGTKLTVL
[1]
  binding result: binds
[2]
  binding result: binds
[3]
  binding result: binds
[4]
  binding result: binds
[5]
  binding result: binds
[6]
  binding result: no binding (tested: 10 µg/mL)
[7]
  binding result: no binding

B3: D8-IgG1 (antibody, V domains shown)
VH: QVQLVQSGAEVKKPGSSVKVSCKASGGTFSAYAFTWVRQAPGQGLEWMGGITGMFGTANYAQKFQGRVTITADELTSTAYMELSSLTSEDTALYYCARGLYYYESSLDYWGQGTLVTVSS
VL: QSVLTQPPSASGSPGQSVTISCTGTSSDVGGYNSVSWYQQHPGKAPKLMIYEVTKRPSGVPDRFSASKSGNTASLTVSGLQAEDEADYFCCSYAGHSAYVFGTGTKVTVL
[1]
  binding result: binds
[2]
  binding result: binds
[3]
  binding result: binds
[4]
  binding result: binds
[5]
  binding result: binds
[6]
  binding result: no binding (tested: 10 µg/mL)
[7]
  binding result: no binding
